Results reported in EP4628508A1 (Biodlink Biopharm Co., Ltd., dated 2025).

Assays:
human ILT4-ECD protein [1] = target: T1, human ILT4-ECD protein (human, UniProt Q8N423 22-460); test: BLI (Octet RED96e), antibody on AHC biosensor, HuILT4 at 100/50/25 nM
T1 construct: also called HuILT4; LILRB2 (ILT4)

[2] = target: T2, human ILT4 expressed on the surface of CHO cells (CHO-huILT4) (human, UniProt Q8N423 22-597); test: flow cytometry on CHO-huILT4 cells
T2 construct: CHO cells infected with lentivirus lenti-huILT4; also called CHO-ILT4; CHO-huILT4 cells
T2 sequence (Q8N423 other isoform, or with tags, fused parts or gaps limits assumed): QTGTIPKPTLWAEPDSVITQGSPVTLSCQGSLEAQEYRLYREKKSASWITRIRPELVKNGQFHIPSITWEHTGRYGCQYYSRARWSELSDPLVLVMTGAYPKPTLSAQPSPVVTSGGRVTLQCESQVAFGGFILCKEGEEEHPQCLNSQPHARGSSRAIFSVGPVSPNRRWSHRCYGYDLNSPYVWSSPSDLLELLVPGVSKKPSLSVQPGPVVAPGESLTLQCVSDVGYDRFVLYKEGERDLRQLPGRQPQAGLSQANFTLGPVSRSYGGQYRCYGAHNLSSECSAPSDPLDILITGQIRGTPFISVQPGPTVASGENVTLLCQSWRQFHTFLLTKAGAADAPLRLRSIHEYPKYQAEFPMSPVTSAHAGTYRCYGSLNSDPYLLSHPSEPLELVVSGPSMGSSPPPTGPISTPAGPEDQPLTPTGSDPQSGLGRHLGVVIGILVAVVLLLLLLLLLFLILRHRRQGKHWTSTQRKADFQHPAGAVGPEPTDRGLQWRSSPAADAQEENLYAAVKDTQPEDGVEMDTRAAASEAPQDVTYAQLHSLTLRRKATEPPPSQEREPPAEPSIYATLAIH

[3] = target: T3, human LILRA4 (R&D System, Cat: 8914-T4-050) (human, UniProt P59901 24-446); test: ELISA, protein coated at 1 µg/mL, antibody at 100 nM, OD450
T3 construct: Bought protein; also called LILRA4 (ILT7); ILT7
T3 sequence (P59901 24-446 limits assumed): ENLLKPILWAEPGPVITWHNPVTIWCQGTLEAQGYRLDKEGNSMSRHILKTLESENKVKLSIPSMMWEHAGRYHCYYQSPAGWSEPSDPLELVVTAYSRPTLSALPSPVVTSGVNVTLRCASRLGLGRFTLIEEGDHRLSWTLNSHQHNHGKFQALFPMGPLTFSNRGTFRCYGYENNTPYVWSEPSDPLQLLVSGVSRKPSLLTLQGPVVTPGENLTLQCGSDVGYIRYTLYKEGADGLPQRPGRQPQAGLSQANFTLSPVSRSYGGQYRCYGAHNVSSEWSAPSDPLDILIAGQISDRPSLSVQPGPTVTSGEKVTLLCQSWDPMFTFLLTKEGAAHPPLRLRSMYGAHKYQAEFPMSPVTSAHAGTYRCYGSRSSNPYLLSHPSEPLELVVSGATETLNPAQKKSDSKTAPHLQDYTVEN

[4] = target: T4, human LILRB3 (R&D System, Cat: 9159-T5-050) (human, UniProt O75022 24-443); test: as above
T4 construct: Bought protein; also called LILRB3 (ILT5); ILT5

[5] = target: T5, human LILRA6 (R&D System, Cat: 9088-T4-050) (human, UniProt Q6PI73 24-447); test: as above
T5 construct: Bought protein; also called LILRA6 (ILT8); ILT8
T5 sequence (Q6PI73 24-447 limits assumed): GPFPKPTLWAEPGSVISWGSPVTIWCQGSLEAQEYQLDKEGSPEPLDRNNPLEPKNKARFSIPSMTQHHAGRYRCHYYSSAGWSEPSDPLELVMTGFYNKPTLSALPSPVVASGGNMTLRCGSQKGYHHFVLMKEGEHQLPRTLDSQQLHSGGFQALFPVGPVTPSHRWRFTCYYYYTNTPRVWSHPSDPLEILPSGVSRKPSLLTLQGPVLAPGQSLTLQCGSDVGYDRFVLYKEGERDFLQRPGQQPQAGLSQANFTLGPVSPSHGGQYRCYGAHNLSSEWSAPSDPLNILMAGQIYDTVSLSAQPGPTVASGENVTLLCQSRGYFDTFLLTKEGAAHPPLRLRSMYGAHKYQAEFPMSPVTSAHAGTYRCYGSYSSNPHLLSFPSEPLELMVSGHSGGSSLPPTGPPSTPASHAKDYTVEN

human ILT2-ECD protein [6] = target: T6, human ILT2-ECD protein (human, UniProt Q8NHL6 24-461); test: as above
T6 construct: also called LILRB1 (ILT2)
T6 sequence (Q8NHL6 24-461 limits assumed): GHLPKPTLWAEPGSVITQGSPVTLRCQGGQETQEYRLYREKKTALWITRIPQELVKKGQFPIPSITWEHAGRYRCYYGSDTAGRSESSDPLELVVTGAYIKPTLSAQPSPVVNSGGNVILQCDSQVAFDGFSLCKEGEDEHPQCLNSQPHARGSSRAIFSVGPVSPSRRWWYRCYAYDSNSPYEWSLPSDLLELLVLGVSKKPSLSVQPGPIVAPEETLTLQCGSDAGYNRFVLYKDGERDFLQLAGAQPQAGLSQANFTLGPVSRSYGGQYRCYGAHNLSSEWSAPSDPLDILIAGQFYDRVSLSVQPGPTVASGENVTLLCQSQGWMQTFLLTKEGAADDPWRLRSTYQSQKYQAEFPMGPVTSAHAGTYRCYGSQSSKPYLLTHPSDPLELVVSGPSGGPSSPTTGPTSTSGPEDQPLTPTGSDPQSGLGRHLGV

[7] = target: T7, human LILRA1 (R&D System, Cat: 9226-T4-050) (human, UniProt O75019 17-461); test: as above
T7 construct: Bought protein; also called LILRA1 (LIR6); LIR6
T7 sequence (O75019 17-461 limits assumed): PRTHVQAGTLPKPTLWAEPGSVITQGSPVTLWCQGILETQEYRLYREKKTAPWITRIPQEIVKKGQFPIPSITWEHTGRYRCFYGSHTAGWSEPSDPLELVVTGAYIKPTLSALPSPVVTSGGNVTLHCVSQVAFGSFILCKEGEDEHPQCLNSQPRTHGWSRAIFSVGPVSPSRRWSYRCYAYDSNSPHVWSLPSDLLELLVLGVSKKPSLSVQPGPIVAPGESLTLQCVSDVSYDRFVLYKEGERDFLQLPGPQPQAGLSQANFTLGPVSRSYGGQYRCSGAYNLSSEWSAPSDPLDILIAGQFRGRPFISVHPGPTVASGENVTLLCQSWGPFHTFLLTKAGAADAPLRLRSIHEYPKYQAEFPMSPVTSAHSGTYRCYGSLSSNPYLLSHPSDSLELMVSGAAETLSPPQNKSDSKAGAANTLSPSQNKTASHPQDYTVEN

human ILT2-ECD protein [8] = target: T6, human ILT2-ECD protein; test: ELISA, human ILT2-ECD coated at 1 µg/mL
[9] = target: T8, human LILRA3 (R&D System, Cat: 9517-T4-100) (human, UniProt Q8N6C8 24-439); test: ELISA, protein coated at 1 µg/mL, antibody at 100 nM, OD450
T8 construct: Bought protein; also called LILRA3 (LIR4)
T8 sequence (Q8N6C8 24-439 limits assumed): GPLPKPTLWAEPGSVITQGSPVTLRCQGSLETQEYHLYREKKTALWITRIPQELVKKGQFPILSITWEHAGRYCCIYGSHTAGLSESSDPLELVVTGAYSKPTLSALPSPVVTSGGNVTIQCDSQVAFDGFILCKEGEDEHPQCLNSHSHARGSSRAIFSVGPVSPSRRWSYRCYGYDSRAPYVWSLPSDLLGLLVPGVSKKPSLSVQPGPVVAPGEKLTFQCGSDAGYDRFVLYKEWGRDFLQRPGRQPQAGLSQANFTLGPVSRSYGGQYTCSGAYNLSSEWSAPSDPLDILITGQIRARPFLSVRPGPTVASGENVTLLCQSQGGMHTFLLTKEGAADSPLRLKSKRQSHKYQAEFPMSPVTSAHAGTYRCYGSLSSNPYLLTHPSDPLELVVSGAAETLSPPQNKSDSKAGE

human ILT4-ECD protein [10] = target: T1, human ILT4-ECD protein; test: as above

T1 sequence (Q8N423 other isoform, or with tags, fused parts or gaps limits assumed): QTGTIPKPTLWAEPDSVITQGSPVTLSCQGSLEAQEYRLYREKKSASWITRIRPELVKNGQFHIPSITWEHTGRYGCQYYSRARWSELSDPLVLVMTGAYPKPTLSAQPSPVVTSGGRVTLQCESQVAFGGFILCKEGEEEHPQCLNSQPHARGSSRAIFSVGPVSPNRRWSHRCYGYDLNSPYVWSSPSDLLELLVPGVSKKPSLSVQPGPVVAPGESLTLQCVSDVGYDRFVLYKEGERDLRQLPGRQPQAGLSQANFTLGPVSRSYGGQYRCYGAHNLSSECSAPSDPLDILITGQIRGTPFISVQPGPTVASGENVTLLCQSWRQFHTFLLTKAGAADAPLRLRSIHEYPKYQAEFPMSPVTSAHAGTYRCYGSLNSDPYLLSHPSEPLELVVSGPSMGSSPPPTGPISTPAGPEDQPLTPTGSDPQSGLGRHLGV

Binder | Kd (human ILT4-ECD protein [1]) [pM] | kon (human ILT4-ECD protein [1]) [M⁻¹ s⁻¹] | EC50 [2] [pM] | other results
PR001795 (antibody, V domains shown, also called control antibody PR001795 (Merck: US20180298096); MK-4830) VH: EVQLQQWGAGLLKPSETLSLTCAVYGGSFSGYYWSWIRQPPGKGLEWIGEINHAGSTNYNPSLKSRVTISVDTSKNQFSLKLSSVTAADTAVYYCARLPTRWVTTRYFDLWGRGTLVTVSS VL: ESVLTQPPSVSGAPGQRVTISCTGSSSNIGAGYDVHWYQQLPGTAPKLLIYGDSNRPSGVPDRFSVSKSGASASLAITGLQAEDEADYYCQSFDNSLSAYVFGGGTQLTVL | 3520 | 431000 | – | –
PR302259 (antibody, human IgG1, kappa, V domains shown, IgG1; also called PR302259 (IgG1)) VH: EVQLLESGGGLVQPGGSLRLSCAVSGFTFSSYAMSWVRQAPGKGLEWVSAISDNAGSTYYADSVKGRFTISRDNSKNTLHLQMNSLRAEDTAVYSCAKERQWLVLGVMDAWGQGASVTVSS VL: not shown | < 1 | 773000 | – | –
PR302261 (antibody, human IgG1, kappa, V domains shown, IgG1; also called PR302261 (IgG1)) VH: EVQLLESGGGLVQSGGSLRLSCAASGFTFSSYAMSWVRQAPGKGLGWVSTISGSGGSAYYADSVKGRFTVSRDNSKKTLYLQMNSLRAEDTAVYFCAILSGDDAFDIWGQGTMVTVSS VL: DVVMTQSPLSLPVTPGEPASISCRSSQSLLRGNGYNYLDWYLQKPGQSPQLLIYLGSNRASGVPDRFSGSGSGTDFTLKISRVEAEDVGIFYCMQALQSPLTFGGGTKVEIKR | 984 | 520000 | – | –
PR302934 (antibody, human IgG1, kappa, V domains shown, IgG1; also called PR302934 (IgG1)) VH: QVQLQQWGAGLLKPSETLSLTCAVYGGSFSGYYWSWIRQTLGKGLEWIGEVSHSGGTNYNPSLKSRVTISVDTSKNQFSLKLSSVTAADTAVYYCARSPYYGDYMYVFDIWGQGTMVTVSS VL: not shown | 458 | 694000 | 1130 | binding result [3]: binds; binding result [4]: binds; binding result [5]: binds; binding result (human ILT2-ECD protein [6]): binds; binding result [7]: binds
PR302264-2 (antibody, human IgG4 S228P, kappa, V domains shown, PTM variant of PR302264, IgG4; also called PR302264-2 (IgG4)) VH: QVQLQQWGAGLLKPSETLSLTCAVYGGSLSGYYWSWIRQPPGKGLEWIGEIAHSGGTNYNPSLKSRVTISVPTSKNQFSLKLTSVTAADTAVYYCARGQQQLDWYFDLWGRGTLVTVSS VL: EIVMTQSPATLSVSPGERATLSCRASQNIYSHLVWYQQKPGQAPRLLIYGASTRATGIPARFSGSGSGTEFTLTITSLQSEDFTVYYCQQYNDWPPITFGQGTRLEIRR | 76.7 | 472000 | – | binding result (human ILT2-ECD protein [6]): binds; binding result [7]: binds
PR302264 (antibody, human IgG1, kappa, V domains shown, IgG1; also called PR302264 (IgG1)) VH: QVQLQQWGAGLLKPSETLSLTCAVYGGSLSGYYWSWIRQPPGKGLEWIGEINHSGGTNYNPSLKSRVTISVPTSKNQFSLKLTSVTAADTAVYYCARGQQQLDWYFDLWGRGTLVTVSS VL: EIVMTQSPATLSVSPGERATLSCRASQNIYSHLVWYQQKPGQAPRLLIYGASTRATGIPARFSGSGSGTEFTLTITSLQSEDFTVYYCQQYNDWPPITFGQGTRLEIRR | 242 | 462000 | – | –
PR302264-3 (antibody, human IgG4 S228P, kappa, V domains shown, PTM variant of PR302264, IgG4; also called PR302264-3 (IgG4)) VH: QVQLQQWGAGLLKPSETLSLTCAVYGGSLSGYYWSWIRQPPGKGLEWIGEITHSGGTNYNPSLKSRVTISVPTSKNQFSLKLTSVTAADTAVYYCARGQQQLDWYFDLWGRGTLVTVSS VL: EIVMTQSPATLSVSPGERATLSCRASQNIYSHLVWYQQKPGQAPRLLIYGASTRATGIPARFSGSGSGTEFTLTITSLQSEDFTVYYCQQYNDWPPITFGQGTRLEIRR | 352 | 454000 | – | binding result (human ILT2-ECD protein [8]): binds
PR302950 (antibody, human IgG1, kappa, V domains shown, IgG1; also called PR302950 (IgG1)) VH: QVQLQESGPGLVKPSGTLSLTCAVSGGSISSSNWWSWVRQPPGKGLEWIGEVYHSGSTNYNPSLKSRVTISVDKSQNQFSLKLTSVTAADTAVYYCARVTGNKDYYYYDLDVWGQGTTVTVSS VL: not shown | – | – | 1090 | –
PR301366 (antibody, V domains shown, also called control antibody PR301366 (Five Prime: WO2020014132)) VH: EVQLLESGGGLVQPGGSLRLSCAASGFTFSNYAMNWVRQAPGKGLEWVSVISVSGGSTYYADSVKGRFTISRDNSKNTLYLQMNSLRAEDTAVYYCAKDYYYDSGSYYDSFFDYWGQGTLVTVSS VL: not shown | – | – | 1070 | –
PR302951 (antibody, human IgG1, kappa, V domains shown, IgG1; also called PR302951 (IgG1)) VH: EVQLLESGGGLVQPGGSLRLSCAASRFTFSTYAMSWVRQAPGKGLEWVSSISGSGFNTYYADSVKGRFTISSDSSKNTLYLQMNSLRAEDTAVYYCAKDRQWLVSSFDYWGQGTLVTVSS VL: DIQMTQSPSSLSASVGDRVTITCQASQDISNYLNWYQQKPGKAPKLLIYDASNLETGVPSRFSGSGSGTDFTFTISSLQPEDIATYYCQQYDNLITFGQGTRLEIKR | 256 | 915000 | 1050 | –
PR302702 (antibody, human IgG1, kappa, V domains shown, IgG1; also called PR302702 (IgG1)) VH: EVQLLESGGGLVQPGGSLRLSCAASGFTFSTYAMTWVRQAPGKGLEWVSSISGSDFNTYYADSVKGRFTISRDISKNTLYLQMNSLRAEDTAVYYCAKDQEWLVRSFHHWGQGTLVTVSS VL: DIQMTQFPSSLFAFVGDRVTITCQASQDISNYLNWYQQKAGKAPKLLINDASNLETGVPSRFSGSGFGTDFTFTISSLQPEDFATYYCQQYENLPTFGGGTKVEIKR | – | – | 1580 | –
PR302282 (antibody, human IgG1, kappa, V domains shown, IgG1; also called PR302282 (IgG1)) VH: QVQLVESGGTVVQSGRSLRLSCAASGFTFSSYGMHWVRQAPGKGLEWVAGMWYDGNYKYYADSVKGRFTISRDNSKNTLSLQMNSLRAEDTAVYYCARDSPIGVFDYWGQGTLVTVSS VL: DIQMTQSPSSLSASVGDRVTITCQASQDISNYLNWYQQKPGKAPKLLIYDASNLETGVPSRFSGSGSGTDFTFTISSLQPEDIATYYCQQYDNLITFGQGTRLEIKR | 124 | 648000 | – | –
PR302949 (antibody, human IgG1, kappa, V domains shown, IgG1; also called PR302949 (IgG1)) VH: EVQLLESGGGLVQPGGSLRLSCAASGFTFSSYAMSWVRQAPGKGLEWVSSISGSDFSTYYADSVKGRFTISRDTSKNTLYLQMNSLRAEDTAVYYCAKDRQWLVSSFDFWGQGALVTVSS VL: DIQMTQSPSSLSASVGDRVTITCQASQDISNYLNWYQQKPGKAPKLLIYDASNLETGVPSRFSGSGSGTDFTFTISSLQPEDIATYYCQQYDNLITFGQGTRLEIKR | 454 | 985000 | 822 | –
PR304683 (antibody, V domains shown, also called Control antibody PR304683 (NGM: WO2021127200); NGM707) VH: QVQLVQSGAEVKKPGASVKVSCKASGYTFTDYYINWVRQAPGQGLEWMGNVNPNDGGTTYNQKFKGRVTMTTDTSTSTAYMELRSLRSDDTAVYYCARREIYFYGTIYYYAMDYWGQGTLVTVSS VL: DIQLTQSPSFLSASVGDRVTITCRASESVDYYGNSFMYWYQQKPGKAPKLLIYFASNLESGVPSRFSGSGSGTEFTLTISSLQPEDFATYYCQQNNEDPWTFGGGTKVEIK | – | – | – | binding result [9]: binds; binding result (human ILT2-ECD protein [6]): binds; binding result [7]: binds; binding result (human ILT4-ECD protein [10]): binds
PR302927 (antibody, human IgG1, kappa, V domains shown, IgG1; also called PR302927 (IgG1)) VH: EVQLLESGGGLVQPGGSLRLSCAASGFTFSSYAMSWVRQAPGKGLEWVSTINHIGDSTYYADSVKGRFTISRDNSKNTLYLQMNSLRAEDTAVYYCAKDQWFGVFDYWGQGTLVTVSS VL: not shown | 884 | 980000 | 805 | –
